Molecular target: human alpha-thrombin (Homo sapiens, UniProt P00734;P00734 P00734:328-363,P00734:364-622)
Test: MST; 100 nM aptamer titrated with 0-16580 nM thrombin; 10% human serum, 1x SSC (150 mM NaCl, 15 mM Na3-citrate, pH 7.2), 5 mM KCl, 1 mM CaCl2, 1 mM MgCl2; IR-laser t

Q: Does TGGTTGGTGTGGTTGGT (ssDNA) [Cy5-labelled thrombin DNA aptamer] bind?
A: Result: binds
